Experimental data published in US6413935.
Non-standard residues stand in square brackets, D forms with d. No end group written: not given here. Cha = N[C@@H](CC1CCCCC1)C(=O)O; 14 = not defined here

Key:
[1] = target: mouse class II IA^s, purified from LS102.9 cells (mouse); assay: 125I-peptide inhibition, purified class II
[2] = target: HLA-DR1 (DRB1*0101), purified from LG2 cells (human); assay: 125I-peptide inhibition, purified class II
[3] = target: T1, mouse class II IA^k, purified from CH12 cells (mouse), P01910; assay: 125I-peptide inhibition, purified class II
T1 chain 1: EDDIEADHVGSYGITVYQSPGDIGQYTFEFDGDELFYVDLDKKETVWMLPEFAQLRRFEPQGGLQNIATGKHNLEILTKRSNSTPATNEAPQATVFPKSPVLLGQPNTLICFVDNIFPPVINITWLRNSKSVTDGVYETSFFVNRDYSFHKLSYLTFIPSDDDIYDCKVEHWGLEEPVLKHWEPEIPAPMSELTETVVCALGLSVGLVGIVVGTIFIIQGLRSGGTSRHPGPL
T1 chain 2: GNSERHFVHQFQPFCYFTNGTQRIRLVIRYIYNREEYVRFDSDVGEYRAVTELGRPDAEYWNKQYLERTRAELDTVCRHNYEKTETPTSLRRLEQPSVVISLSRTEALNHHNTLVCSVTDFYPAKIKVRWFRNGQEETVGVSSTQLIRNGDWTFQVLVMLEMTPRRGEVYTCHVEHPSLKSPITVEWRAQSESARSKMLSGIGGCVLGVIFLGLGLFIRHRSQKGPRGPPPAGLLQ

[4] = target: mouse class II IE^k, purified from CH12 cells (mouse); assay: 125I-peptide inhibition, purified class II
[5] = target: T2, HLA-DRw53 (DRB4*0101), purified from L257.6 transfected fibroblasts (human); assay: 125I-peptide inhibition, purified class II
T2 chain 1: not shown
T2 chain 2: not shown

[6] = target: T3, HLA-DR7 (DRB1*0701), purified from PITOUT cells (human); assay: 125I-peptide inhibition, purified class II
T3 chain 1: not shown
T3 chain 2: not shown

[7] = target: T4, HLA-DR4w4 (DRB1*0401), purified from PREISS cells (human); assay: 125I-peptide inhibition, purified class II
T4 chain 1: not shown
T4 chain 2: not shown

[8] = target: T5, HLA-DR5 (DRB1*11011), purified from cell line SWEIG (human); assay: competition vs 125I-peptide, purified class II MHC
T5 chain 1: not shown
T5 chain 2: not shown

[9] = target: T6, HLA-DR4w4 (DRB1*0401), purified from cell line PREISS (human); assay: competition vs 125I-peptide, purified class II MHC
T6 chain 1: not shown
T6 chain 2: not shown

[10] = target: T7, HLA-DR7 (DRB1*0701), purified from cell line PITOUT (human); assay: competition vs 125I-peptide, purified class II MHC
T7 chain 1: not shown
T7 chain 2: not shown

[11] = target: T8, HLA-DR3 (DRB1*0301), purified from MAT cells (human); assay: 125I-peptide inhibition, purified class II
T8 chain 1: not shown
T8 chain 2: not shown

[12] = target: T9, HLA-DR3 (DRB1*0301), purified from cell line MAT (human); assay: competition vs 125I-peptide, purified class II MHC
T9 chain 1: not shown
T9 chain 2: not shown

[13] = target: T10, mouse class II IA^b, purified from DB27.4 cells (mouse), P14434; assay: 125I-peptide inhibition, purified class II
T10 chain 1: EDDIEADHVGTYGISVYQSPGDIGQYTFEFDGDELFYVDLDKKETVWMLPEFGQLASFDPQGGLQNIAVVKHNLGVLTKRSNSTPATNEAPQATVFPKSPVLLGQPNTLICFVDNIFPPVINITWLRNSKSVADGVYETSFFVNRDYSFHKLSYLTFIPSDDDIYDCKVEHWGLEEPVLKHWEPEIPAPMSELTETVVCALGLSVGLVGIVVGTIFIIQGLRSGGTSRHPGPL
T10 chain 2: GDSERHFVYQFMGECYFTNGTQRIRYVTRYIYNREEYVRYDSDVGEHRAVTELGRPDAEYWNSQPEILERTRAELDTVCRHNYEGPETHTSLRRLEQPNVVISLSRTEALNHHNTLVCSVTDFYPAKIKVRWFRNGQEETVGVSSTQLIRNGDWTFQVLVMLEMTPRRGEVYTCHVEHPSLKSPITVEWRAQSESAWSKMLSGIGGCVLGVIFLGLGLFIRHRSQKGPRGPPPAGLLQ

[14] = target: mouse class II IE^d, purified from A20 cells (mouse); assay: 125I-peptide inhibition, purified class II
[15] = target: T11, HLA-DR5 (DRB1*11011), purified from SWEIG cells (human); assay: 125I-peptide inhibition, purified class II
T11 chain 1: not shown
T11 chain 2: not shown

Work on [dA]A[Cha]AAAATLKAA[dA] [760.57] yielded an IC50 [1] of 120 nM, an IC50 [2] of 4.5 nM and an IC50 [3] of 5260 nM. For the same binder, the IC50 [4] was 78 nM, the IC50 [5] was 3300 nM and the IC50 [6] was 78 nM. The IC50 [7] was 2 nM.

B1: 906.20 (peptide)
peptide: [dA]A[Cha]AAQATLKAA[dA]-NH2
modifications: N-terminus assumed
SMILES: CC(C)C[C@H](NC(=O)[C@@H](NC(=O)[C@H](C)NC(=O)[C@H](CCC(N)=O)NC(=O)[C@H](C)NC(=O)[C@H](C)NC(=O)[C@H](CC1CCCCC1)NC(=O)[C@H](C)NC(=O)[C@@H](C)N)[C@@H](C)O)C(=O)N[C@@H](CCCCN)C(=O)N[C@@H](C)C(=O)N[C@@H](C)C(=O)N[C@H](C)C(N)=O
B1 was tested, and the fold reduction of binding vs 760.57 [6] was 30 fold.

[dA]K[14]VYAWTLKAA[dA]-NH2 (reading uncertain; also: printed as aK(14)VYAWTLKAAa-NH2) [peptide 965.051, aK(14)…a-NH2] gave an IC50 [8] of 5.7 nM, an IC50 [9] of 0.3 nM and an IC50 [10] of 833 nM.

Work on [dA]A[Cha]AAEATLKAA[dA]-NH2 [906.19] yielded an IC50 [11] of 1500 nM.

With [dA]K[14]VWANTLKAA[dA]-NH2 (reading uncertain; also: printed as aK(14)VWANTLKAAa-NH2) [peptide 965.032, aK(14)…a-NH2] the IC50 [8] was 2.9 nM, the IC50 [9] was 0.7 nM and the IC50 [12] was 849 nM.

B2: 906.18 (peptide)
peptide: [dA]A[Cha]AAKATLKAA[dA]-NH2
modifications: N-terminus assumed
SMILES: CC(C)C[C@H](NC(=O)[C@@H](NC(=O)[C@H](C)NC(=O)[C@H](CCCCN)NC(=O)[C@H](C)NC(=O)[C@H](C)NC(=O)[C@H](CC1CCCCC1)NC(=O)[C@H](C)NC(=O)[C@@H](C)N)[C@@H](C)O)C(=O)N[C@@H](CCCCN)C(=O)N[C@@H](C)C(=O)N[C@@H](C)C(=O)N[C@H](C)C(N)=O
With B2 the fold decrease of binding activity vs 760.57 [2] was 8 fold.

B3: 906.16 (peptide)
peptide: [dA]A[Cha]AVAATLKAA[dA]-NH2
modifications: N-terminus assumed
SMILES: CC(C)C[C@H](NC(=O)[C@@H](NC(=O)[C@H](C)NC(=O)[C@H](C)NC(=O)[C@@H](NC(=O)[C@H](C)NC(=O)[C@H](CC1CCCCC1)NC(=O)[C@H](C)NC(=O)[C@@H](C)N)C(C)C)[C@@H](C)O)C(=O)N[C@@H](CCCCN)C(=O)N[C@@H](C)C(=O)N[C@@H](C)C(=O)N[C@H](C)C(N)=O
B3 showed a fold increase in reactivity vs 760.57 [5] of 100 fold and a fold increase in binding vs 760.57 [11] of 2 to 4 fold.

HSLGKWLGHPDKF (modifications not checked) [PLP 139-151] gave an IC50 [1] of 86 nM.

Work on [dA]K[14]VKANTLKAA[dA]-NH2 (reading uncertain; also: printed as aK(14)VKANTLKAAa-NH2) [peptide 965.012, aK(14)…a-NH2] yielded an IC50 [8] of 2.2 nM, an IC50 [9] of 2.1 nM and an IC50 [12] of 4590 nM.

B4: 906.04 (peptide)
peptide: [dA]V[Cha]AAAATLKAA[dA]-NH2
modifications: N-terminus assumed
SMILES: CC(C)C[C@H](NC(=O)[C@@H](NC(=O)[C@H](C)NC(=O)[C@H](C)NC(=O)[C@H](C)NC(=O)[C@H](C)NC(=O)[C@H](CC1CCCCC1)NC(=O)[C@@H](NC(=O)[C@@H](C)N)C(C)C)[C@@H](C)O)C(=O)N[C@@H](CCCCN)C(=O)N[C@@H](C)C(=O)N[C@@H](C)C(=O)N[C@H](C)C(N)=O
With B4 the fold increase in reactivity vs 760.57 [5] was 30 to 100 fold and the fold increase in reactivity vs 760.57 [11] was 3 fold.

Work on NTDGSTDYGILQINSR (modifications not checked) [HEL46-61] yielded an IC50 [13] of 7000 nM, an IC50 [3] of 20 nM and an IC50 [14] of 8500 nM.

B5: 906.50 (peptide)
peptide: [dA]A[Cha]AAAATLKAF[dA]-NH2
modifications: N-terminus assumed
SMILES: CC(C)C[C@H](NC(=O)[C@@H](NC(=O)[C@H](C)NC(=O)[C@H](C)NC(=O)[C@H](C)NC(=O)[C@H](C)NC(=O)[C@H](CC1CCCCC1)NC(=O)[C@H](C)NC(=O)[C@@H](C)N)[C@@H](C)O)C(=O)N[C@@H](CCCCN)C(=O)N[C@@H](C)C(=O)N[C@@H](Cc1ccccc1)C(=O)N[C@H](C)C(N)=O
In the case of B5, the fold increase in reactivity vs 760.57 [5] is reported as 40 fold and the fold increase in reactivity vs 760.57 [11] is reported as 8 fold.

[dA]K[14]VWANTLKAA[dA]-NH2 (reading uncertain; also: printed as aK(14)VWANTLKAAa-NH2) [peptide 965.031, aK(14)…a-NH2] gave an IC50 [8] of 8.3 nM and an IC50 [9] of 2.1 nM.

B6: 906.30 (peptide)
peptide: [dA]A[Cha]AAAATEKAA[dA]-NH2
modifications: N-terminus assumed
SMILES: C[C@H](NC(=O)[C@H](C)NC(=O)[C@H](C)NC(=O)[C@H](CC1CCCCC1)NC(=O)[C@H](C)NC(=O)[C@@H](C)N)C(=O)N[C@@H](C)C(=O)N[C@H](C(=O)N[C@@H](CCC(=O)O)C(=O)N[C@@H](CCCCN)C(=O)N[C@@H](C)C(=O)N[C@@H](C)C(=O)N[C@H](C)C(N)=O)[C@@H](C)O
For B6, the fold loss of binding reactivity vs 760.57 [15] was 10 fold, the fold loss of binding reactivity vs 760.57 [2] was 8 fold and the fold loss of binding reactivity vs 760.57 [6] was 10 fold. The fold loss of binding reactivity vs 760.57 [7] was 7 fold.

[dA]A[Cha]AAAKTAAAA[dA] [760.50] gave an IC50 [15] of 6.1 nM and an IC50 [13] of 200 nM.

Work on [dA]K[14]VKAWTLKAA[dA]-NH2 (reading uncertain; also: printed as aK(14)VKAWTLKAAa-NH2) [peptide 965.022, aK(14)…a-NH2] yielded an IC50 [8] of 1.1 nM and an IC50 [9] of 0.8 nM.

B7: 906.17 (peptide)
peptide: [dA]A[Cha]AFAATLKAA[dA]-NH2
modifications: N-terminus assumed
SMILES: CC(C)C[C@H](NC(=O)[C@@H](NC(=O)[C@H](C)NC(=O)[C@H](C)NC(=O)[C@H](Cc1ccccc1)NC(=O)[C@H](C)NC(=O)[C@H](CC1CCCCC1)NC(=O)[C@H](C)NC(=O)[C@@H](C)N)[C@@H](C)O)C(=O)N[C@@H](CCCCN)C(=O)N[C@@H](C)C(=O)N[C@@H](C)C(=O)N[C@H](C)C(N)=O
In the case of B7, the fold increase in reactivity vs 760.57 [5] is reported as 100 fold and the fold increase in binding vs 760.57 [11] is reported as 2 to 4 fold.

For [dA]K[14]VKANTLKAA[dA]-NH2 (reading uncertain; also: printed as aK(14)VKANTLKAAa-NH2) [peptide 965.011, aK(14)…a-NH2], the IC50 [8] was 11.8 nM and the IC50 [12] was 592 nM.

With [dA]K[14]VYAWTLKAA[dA]-NH2 (reading uncertain; also: printed as aK(14)VYAWTLKAAa-NH2) [peptide 965.052, aK(14)…a-NH2] the IC50 [8] was 6.9 nM, the IC50 [9] was 0.8 nM and the IC50 [10] was 25.5 nM.

AKFVAAWTLKAAA (modifications not checked) [1024.03] was tested, and the IC50 [15] was 18 nM, the IC50 [4] was 3500 nM and the IC50 [7] was 2 nM.
